Reference: patent US12194076B2, “Methods and compositions for treating myelofibrosis” (Acceleron Pharma Inc., priority 2016, dated 2025)
Changes are numbered by the printed parent chain. In names and notes the source's numbering stands. Blank lines part the entries; values can stand above or below the molecule they belong to.

Legend:
[1] = target: T1, GDF11 (Homo sapiens, UniProt O95390); assay: Biacore steady-state affinity of ActRIIB-hFc proteins for GDF11; type: binding; details: compared to counterparts lacking the L79D substitution
T1 sequence (O95390 299-407): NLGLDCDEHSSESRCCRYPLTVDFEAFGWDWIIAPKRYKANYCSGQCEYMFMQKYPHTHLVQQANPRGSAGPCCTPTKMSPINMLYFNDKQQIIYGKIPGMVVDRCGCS
Method: (§1) Affinities of several ligands for ActRIIB(25-131)-hFc and its full-length counterpart ActRIIB(20-134)-hFc were evaluated in vitro with a Biacore™ instrument, and the results are summarized in the table below. Kd values were obtained by steady-state affinity fit due to very rapid association and dissociation of the complex, which prevented accurate determination of kon and koff. ActRIIB(25-131)-hFc bound activin A, activin B, and GDF11 with high affinity.
(§2) The affinity of GDF traps and other ActRIIB-hFc proteins for several ligands was evaluated in vitro with a Biacore™ instrument. Kd values were obtained by steady-state affinity fit due to the very rapid association and dissociation of the complex, which prevented accurate determination of kon and koff.

[2] = target: T2, Activin A (Homo sapiens, UniProt P08476); assay: Biacore steady-state affinity of ActRIIB-hFc proteins for activin A; type: binding; details: compared to counterparts lacking the L79D substitution
T2 sequence (P08476 311-426): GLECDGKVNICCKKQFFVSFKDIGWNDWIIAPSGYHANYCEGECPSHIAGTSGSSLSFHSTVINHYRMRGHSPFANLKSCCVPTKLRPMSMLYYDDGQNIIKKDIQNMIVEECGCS
Method: as §1, §2

[3] = target: T3, Activin B (Homo sapiens, UniProt P09529); assay: Biacore steady-state affinity of ActRIIB-hFc proteins for activin B; type: binding; details: compared to counterparts lacking the L79D substitution
T3 sequence (P09529 293-407): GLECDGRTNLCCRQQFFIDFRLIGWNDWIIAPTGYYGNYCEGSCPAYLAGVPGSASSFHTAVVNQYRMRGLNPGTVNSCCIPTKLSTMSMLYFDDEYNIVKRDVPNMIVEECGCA
Method: as §1, §2

[4] = tested on: myelofibrosis patients with splenomegaly; details: cited from earlier work
[5] = tested on: C57BL/6 mice; assay: GDF trap in ruxolitinib treated animals, hematological parameters; type: in vivo; details: 60 mg/kg twice daily, four weeks
Description: Ruxolitinib is a Janus kinase inhibitor that has been approved for the treatment of intermediate or high-risk myelofibrosis. […] However, a variety of hematological side effects have been observed in patients treated with ruxolitinib including, for example, anemia. Nine month old C57BL/6 mice were used to understand the effects of ActRIIB(L79D 25-131)-Fc treatment on various hematological parameters in ruxolitinib treated mice.
For this study, treatment was initiated at 6-7 months of age. Mice were placed into one of four groups: i) treatment with ActRIIB(L79D 25-131)-Fc on a dosing schedule of 10 mg/kg twice weekly; ii) treatment with ruxolitinib on a dosing schedule of 60 mg/kg twice daily; iii) treatment with ActRIIB(L79D 25-131)-Fc on a dosing schedule of 10 mg/kg twice weekly and ruxolitinib on a dosing schedule of 60 mg/kg twice daily; and iv) treatment with vehicle (TBS) twice weekly (i.e., control animals).

[6] = target: T2, Activin A; assay: Biacore assay, receptor captured with anti-hFc antibody, activin A injected; type: binding; details: for Koff (1/s), Activin A / Kon (1/Ms), Activin A / KD (M), Activin A: receptor captured via anti-hFc antibody; for binding to activin A, in words: cell-free Biacore assay
Method: (§3) Binding of certain ActRIIB-Fc proteins and GDF traps to ligands was tested in a Biacore™ assay.
(§4) The ActRIIB-Fc variants or wild-type protein were captured onto the system using an anti-hFc antibody. Ligands were injected and flowed over the captured receptor proteins.

[7] = target: T4, GDF8 (Homo sapiens, UniProt O14793); assay: Biacore assay, receptor captured with anti-hFc antibody, GDF8 injected; type: binding; details: for Koff (1/s), GDF8: receptor captured via anti-hFc antibody; for myostatin binding, in words: cell-free Biacore assay
T4 sequence (O14793 267-375): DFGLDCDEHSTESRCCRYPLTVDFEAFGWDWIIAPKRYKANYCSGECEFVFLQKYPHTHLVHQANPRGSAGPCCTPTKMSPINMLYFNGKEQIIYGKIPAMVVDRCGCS
Method: as §3, §4

[8] = target: T1, GDF11; assay: Biacore assay, receptor captured with anti-hFc antibody, GDF11 injected; type: binding; details: for GDF11 binding, in words: cell-free Biacore assay; for Koff (1/s), GDF11: receptor captured via anti-hFc antibody
Method: as §3, §4

[9] = target: T1, GDF11; assay: A-204 reporter gene assay, inhibition of GDF-11 signaling; type: cell-based; set-up: host or cells: added to A-204 cells (human rhabdomyosarcoma)
Description: (§5) An A-204 reporter gene assay was used to evaluate the effects of ActRIIB-Fc proteins and GDF traps on signaling by GDF-11 and activin A. Cell line: human rhabdomyosarcoma (derived from muscle). Reporter vector: pGL3(CAGA)12 (described in Dennler et al, 1998, EMBO 17: 3091-3100). The CAGA12 motif is present in TGF-beta responsive genes (e.g., PAI-1 gene), so this vector is of general use for factors signaling through SMAD2 and 3.
(§6) Day 1: Split A-204 cells into 48-well plate.
(§7) Day 2: A-204 cells transfected with 10 ug pGL3(CAGA)12 or pGL3(CAGA)12(10 ug)+pRLCMV (1 μg) and Fugene.
(§8) Day 3: Add factors (diluted into medium+0.1% BSA). Inhibitors need to be preincubated with factors for 1 hr before adding to cells. Six hrs later, cells were rinsed with PBS and lysed.
(§9) This is followed by a luciferase assay.
(§10) Activity of ActRIIB-Fc proteins and GDF traps was tested in a cell-based assay as described above. Some variants were tested in different C-terminal truncation constructs. As discussed above, truncations of five or fifteen amino acids caused reduction in activity.

[10] = target: T2, Activin A; assay: A-204 reporter gene assay, inhibition of activin A signaling; type: cell-based; set-up: host or cells: added to A-204 cells (human rhabdomyosarcoma)
Description: as §5, §6, §7, §8, §9, §10

- decrease of hemoglobin levels compared to control animals [5]: ~4%
- decrease of red blood cell levels compared to control animals [5]: ~4%
Molecule: N#CC[C@H](C1CCCC1)n1cc(-c2ncnc3[nH]ccc23)cn1 [ruxolitinib]

- Koff (1/s), Activin A [6]: 0.000628 s⁻¹
- Kon (1/Ms), Activin A [6]: 7.46e+06 M⁻¹ s⁻¹
- Koff (1/s), GDF8 [7]: 0.000209 s⁻¹
B1: ActRIIB(R64K 20-129)-hFc: ActRIIB-hFc variant, residues 20-129, R64K substitution (protein)
chain: GRGEAETRECIYYNANWELERTNQSGLERCEGEQDKRLHCYASWKNSSGTIELVKKGCWLDDFNCYDRQECVATEENPQVYFCCCEGNFCNERFTHLPEAGGPEVTYEPPGGGTHTCPPCPAPELLGGPSVFLFPPKPKDTLMISRTPEVTCVVVDVSHEDPEVKFNWYVDGVEVHNAKTKPREEQYNSTYRVVSVLTVLHQDWLNGKEYKCKVSNKALPVPIEKTISKAKGQPREPQVYTLPPSREEMTKNQVSLTCLVKGFYPSDIAVEWESNGQPENNYKTTPPVLDSDGSFFLYSKLTVDKSRWQQGNVFSCSVMHEALHNHYTQKSLSLSPGK

- binding to activin A, in words [6]: markedly decreased (non-quantifiable)
- KD (M), Activin A [6]: Low binding
- GDF11 binding, in words [8]: retains
- Koff (1/s), GDF11 [8]: 0.000439 s⁻¹
- inhibition of GDF-11 activity, in words [9]: almost wild-type
- myostatin binding, in words [7]: retains
- Koff (1/s), GDF8 [7]: 0.00083 s⁻¹
- inhibition of activin A activity, in words [10]: substantial loss
B2: ActRIIB(L79D 20-134)-hFc: GDF trap: ActRIIB amino acids 20-134 with L79D substitution fused to human Fc, SEQ ID NO: 29 (protein)
chain: GRGEAETRECIYYNANWELERTNQSGLERCEGEQDKRLHCYASWRNSSGTIELVKKGCWDDDFNCYDRQECVATEENPQVYFCCCEGNFCNERFTHLPEAGGPEVTYEPPPTAPTGGGTHTCPPCPAPELLGGPSVFLFPPKPKDTLMISRTPEVTCVVVDVSHEDPEVKFNWYVDGVEVHNAKTKPREEQYNSTYRVVSVLTVLHQDWLNGKEYKCKVSNKALPVPIEKTISKAKGQPREPQVYTLPPSREEMTKNQVSLTCLVKGFYPSDIAVEWESNGQPENNYKTTPPVLDSDGSFFLYSKLTVDKSRWQQGNVFSCSVMHEALHNHYTQKSLSLSPGK

- Koff (1/s), Activin A [6]: 0.000346 s⁻¹
- Kon (1/Ms), Activin A [6]: 3.34e+06 M⁻¹ s⁻¹
- Koff (1/s), GDF11 [8]: 6.35e-05 s⁻¹
B4: ActRIIB(A24N 20-134)-hFc: ActRIIB(20-134)-hFc variant with A24N substitution (protein)
chain: B2 chain with A5N, D60L

- Koff (1/s), Activin A [6]: 0.000325 s⁻¹
- Kon (1/Ms), Activin A [6]: 6.82e+06 M⁻¹ s⁻¹
- Koff (1/s), GDF11 [8]: 2.41e-05 s⁻¹
- Koff (1/s), GDF8 [7]: 4.71e-05 s⁻¹
B5: ActRIIB(R64K 20-134)-hFc: ActRIIB(20-134)-hFc variant with R64K substitution (protein)
chain: B2 chain with R45K, D60L

- Koff (1/s), Activin A [6]: 0.000417 s⁻¹
- Kon (1/Ms), Activin A [6]: 5.02e+06 M⁻¹ s⁻¹
- Koff (1/s), GDF8 [7]: 0.00018 s⁻¹
B6: ActRIIB(P129S, P130R 20-134)-hFc: ActRIIB(20-134)-hFc variant with P129S and P130R substitutions (protein)
chain: B2 chain with D60L, P110S, P111R

- binding to activin A, in words [6]: markedly decreased (non-quantifiable)
- KD (M), Activin A [6]: Low binding
- GDF11 binding, in words [8]: retains
- Koff (1/s), GDF11 [8]: 0.000274 s⁻¹
- inhibition of GDF-11 activity, in words [9]: almost wild-type
- myostatin binding, in words [7]: retains
- Koff (1/s), GDF8 [7]: 0.0009 s⁻¹
- inhibition of activin A activity, in words [10]: substantial loss
B7: ActRIIB(L79E 20-134)-hFc: GDF trap form with a glutamate rather than an aspartate at position 79, human Fc fusion (protein)
chain: B2 chain with D60E

The next lines start with the molecule.

Molecule: ActRIIB(25-131)-hFc: human ActRIIB extracellular domain residues 25-131 fused to human Fc via three glycine residues, mature SEQ ID NO: 28
- GDF11 binding, in words [1]: high affinity
- activin A binding, in words [2]: high affinity
- activin B binding, in words [3]: high affinity

Molecule: Nc1cccc2c1CN(C1CCC(=O)NC1=O)C2=O (stereo not drawn) [lenalidomide]
- spleen response rate [4]: 33%

Molecule: O=C1CCC(N2C(=O)c3ccccc3C2=O)C(=O)N1 (stereo not drawn) [thalidomide]
- spleen response rate [4]: < 20%

Molecule: Nc1nc(Cl)nc2c1ncn2[C@H]1C[C@H](O)[C@@H](CO)O1 [cladribine]
- spleen response rate [4]: up to 50%

Molecule: NC(=O)NO [HC, Hydroxycarbamide]
- patients with reductions in spleen size from 25%-50% ([4]; Martinez-Trillos et al. (2010)): up to 35%

B3: ActRIIB(K74A 20-134)-hFc: ActRIIB(20-134)-hFc variant with K74A substitution (protein)
chain: B2 chain with K55A, D60L
- Koff (1/s), GDF8 [7]: 2.03e-05 s⁻¹
